Source: US20020055467A1 (Biogen, published 2002)

Biological target: T1, fusion protein between the extracellular domain of rat RET and placental alkaline phosphatase (rat, UniProt G3V9H8 24-637)
T1 construct: extracellular domain; Used as conditioned medium from 293 EBNA cells; Construct described in Sanicola et al. 1997; also called RET-AP
Experiment: ternary complex assay without ligand (parental CHO medium or straight medium)
Protocol: Dynex Microlite-1 ELISA plates (Dynex Technologies) were coated with 1 μg/ml goat antibody specific for human Fc in 50 mM bicarbonate/carbonate, pH 9.6 for 16 hr. The plates were emptied and filled with 300 μl of 1% I-block (Tropix) in TBS/0.5% Tween-20 (TBST), for 1 hr. After washing three times with TBST the wells were filled with 100 μl of 1 μg/ml rGFRα1-Ig or mGFRα3-Ig diluted in conditioned media from 293 EBNA cells expressing the RET-AP fusion gene. 100 ul of conditioned media from the CHO neublastin clones was then added to the top well of a column of wells, and 2 fold serial dilutions were performed down each row of wells, and incubated for 1.5 hr at room temperature. The plates were then washed three times with TBST, and twice with 200 mM Tris pH9.8, 10 mM MgCl₂ (CSPD buffer). The wash solution was then replaced with 425 μM CSPD (Tropix) in CSPD buffer containing 1 mg/ml Sapphire chemiluminescence enhancer (Tropix), and incubated for 30′ at room temperature. The chemiluminescent output was measured using a Dynatech luminometer.
The initial experiments investigated whether neublastin produced by the CHO cell lines could mediate the binding of GFRα1 or GFRα3 to the extracellular domain of RET.

T1 sequence (G3V9H8 24-637): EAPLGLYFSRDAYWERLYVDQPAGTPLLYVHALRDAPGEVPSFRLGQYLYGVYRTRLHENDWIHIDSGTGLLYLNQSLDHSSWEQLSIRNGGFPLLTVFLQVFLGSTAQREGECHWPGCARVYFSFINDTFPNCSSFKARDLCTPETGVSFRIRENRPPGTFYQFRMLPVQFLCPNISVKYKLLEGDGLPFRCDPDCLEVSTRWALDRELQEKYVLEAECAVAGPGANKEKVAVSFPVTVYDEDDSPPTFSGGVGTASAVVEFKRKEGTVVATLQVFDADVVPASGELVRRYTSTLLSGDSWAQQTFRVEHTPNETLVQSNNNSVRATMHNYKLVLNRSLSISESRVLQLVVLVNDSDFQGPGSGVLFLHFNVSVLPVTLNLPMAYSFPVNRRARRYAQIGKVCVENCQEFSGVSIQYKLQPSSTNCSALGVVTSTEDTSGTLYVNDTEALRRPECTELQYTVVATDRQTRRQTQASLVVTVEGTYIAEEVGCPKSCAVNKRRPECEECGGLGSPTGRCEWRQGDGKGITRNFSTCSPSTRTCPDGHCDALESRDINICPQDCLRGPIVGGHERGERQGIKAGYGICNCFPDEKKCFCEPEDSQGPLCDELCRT

- binding result: no binding
B1: fusion protein between the extracellular domain of rat GFRα1 and the Fc domain of human IgG1 (Fc fusion, UniProt Q62997 25-430, looked up, not shown: a dimerising Fc or GST)
chain: DRLDCVKASDQCLKEQSCSTKYRTLRQCVAGKETNFSLTSGLEAKDECRSAMEALKQKSLYNCRCKRGMKKEKNCLRIYWSMYQSLQGNDLLEDSPYEPVNSRLSDIFRAVPFISDVFQQVEHISKGNNCLDAAKACNLDDTCKKYRSAYITPCTTSMSNEVCNRRKCHKALRQFFDKVPAKHSYGMLFCSCRDIACTERRRQTIVPVCSYEERERPNCLSLQDSCKTNYICRSRLADFFTNCQPESRSVSNCLKENYADCLLAYSGLIGTVMTPNYVDSSSLSVAPWCDCSNSGNDLEDCLKFLNFFKDNTCLKNAIQAFGNGSDVTMWQPAPPVQTTTATTTTAFRVKNKPLGPAGSENEIPTHVLPPCANLQAQKLKSNVSGSTHLCLSDSDFGKDGLAGASS
notes: extracellular domain; Construct described in Sanicola et al. 1997; also called rGFRα1-Ig
